Publication PMC12102759 (2025)

B1: RNF115 peptide 69-84 (E3 ubiquitin-protein ligase RNF115), 16-mer library wild type / MDM2 SWIB (MDM2 SWIB/MDM2 domain, residues 17-125) (parent complex)
chain 1: THFAELWGHLDHTMFF
chain 2: SQIPASEQETLVRPKPLLLKLLKSVGAQKDTYTMKEVLFYLGQYIMTKRLYDEKQQHIVYCSNDLLGDLFGVPSFSVKEHRKIYTMIYRNLVVVNQQESSDSGTSVSEN

Variants of: B1
Test: proteomic peptide phage display deep mutational scan (ProP-PD DMS): M13 P8 16-mer library selected against immobilised GST-tagged bait for four days (rounds), NGS of the eluted pools per day and pseudo-replica; bait immobilised on MaxiSorp plates (10 µg), library pre-cleared on GST, 2 h binding at 4 °C, five washes; one round per day, days 1-4; value from days 2 and 3

Row | Variant | screen value
1 | chain 1 M14Q | 0.000925 average fractional NGS count over selection days 2 and 3 (reads of this peptide / all reads for the bait, averaged over …
2 | chain 1 M14E | 0.000177 average fractional NGS count over selection days 2 and 3 (reads of this peptide / all reads for the bait, averaged over …
3 | chain 1 M14F | 0.000469 average fractional NGS count over selection days 2 and 3 (reads of this peptide / all reads for the bait, averaged over …
4 | chain 1 L6V | 0.000773 average fractional NGS count over selection days 2 and 3 (reads of this peptide / all reads for the bait, averaged over …
5 | chain 1 L6M | 0.000951 average fractional NGS count over selection days 2 and 3 (reads of this peptide / all reads for the bait, averaged over …
6 | chain 1 L6F | 0.00096 average fractional NGS count over selection days 2 and 3 (reads of this peptide / all reads for the bait, averaged over …
7 | chain 1 L6A | 0.00179 average fractional NGS count over selection days 2 and 3 (reads of this peptide / all reads for the bait, averaged over …
8 | chain 1 L10V | 0.000492 average fractional NGS count over selection days 2 and 3 (reads of this peptide / all reads for the bait, averaged over …
9 | chain 1 L10F | 0.00105 average fractional NGS count over selection days 2 and 3 (reads of this peptide / all reads for the bait, averaged over …
10 | chain 1 L10I | 0.00104 average fractional NGS count over selection days 2 and 3 (reads of this peptide / all reads for the bait, averaged over …
11 | chain 1 L10M | 0.00099 average fractional NGS count over selection days 2 and 3 (reads of this peptide / all reads for the bait, averaged over …
12 | chain 1 A4S | 0.00536 average fractional NGS count over selection days 2 and 3 (reads of this peptide / all reads for the bait, averaged over …
13 | chain 1 A4W | 0.000398 average fractional NGS count over selection days 2 and 3 (reads of this peptide / all reads for the bait, averaged over …
14 | chain 1 A4M | 0.000942 average fractional NGS count over selection days 2 and 3 (reads of this peptide / all reads for the bait, averaged over …
15 | chain 1 A4H | 0.00203 average fractional NGS count over selection days 2 and 3 (reads of this peptide / all reads for the bait, averaged over …
16 | chain 1 A4V | 0.000584 average fractional NGS count over selection days 2 and 3 (reads of this peptide / all reads for the bait, averaged over …
17 | chain 1 A4T | 0.000121 average fractional NGS count over selection days 2 and 3 (reads of this peptide / all reads for the bait, averaged over …
18 | chain 1 A4I | 0.000788 average fractional NGS count over selection days 2 and 3 (reads of this peptide / all reads for the bait, averaged over …
19 | chain 1 A4E | 0.000667 average fractional NGS count over selection days 2 and 3 (reads of this peptide / all reads for the bait, averaged over …
20 | chain 1 A4P | 0.000473 average fractional NGS count over selection days 2 and 3 (reads of this peptide / all reads for the bait, averaged over …
21 | chain 1 A4F | 0.000182 average fractional NGS count over selection days 2 and 3 (reads of this peptide / all reads for the bait, averaged over …
22 | chain 1 E5D | 0.00488 average fractional NGS count over selection days 2 and 3 (reads of this peptide / all reads for the bait, averaged over …
23 | chain 1 E5T | 0.000518 average fractional NGS count over selection days 2 and 3 (reads of this peptide / all reads for the bait, averaged over …
24 | chain 1 E5Y | 0.000681 average fractional NGS count over selection days 2 and 3 (reads of this peptide / all reads for the bait, averaged over …

Row | Variant | screen value
25 | chain 1 E5S | 0.00184 average fractional NGS count over selection days 2 and 3 (reads of this peptide / all reads for the bait, averaged over …
26 | chain 1 E5N | 0.000269 average fractional NGS count over selection days 2 and 3 (reads of this peptide / all reads for the bait, averaged over …
27 | chain 1 E5W | 0.00018 average fractional NGS count over selection days 2 and 3 (reads of this peptide / all reads for the bait, averaged over …
28 | chain 1 E5V | 0.000931 average fractional NGS count over selection days 2 and 3 (reads of this peptide / all reads for the bait, averaged over …
29 | chain 1 E5A | 0.000481 average fractional NGS count over selection days 2 and 3 (reads of this peptide / all reads for the bait, averaged over …
30 | chain 1 F3Q | 0.000412 average fractional NGS count over selection days 2 and 3 (reads of this peptide / all reads for the bait, averaged over …
31 | chain 1 F3T | 9.19e-05 average fractional NGS count over selection days 2 and 3 (reads of this peptide / all reads for the bait, averaged over …
32 | chain 1 G8N | 0.00558 average fractional NGS count over selection days 2 and 3 (reads of this peptide / all reads for the bait, averaged over …
33 | chain 1 G8T | 0.00199 average fractional NGS count over selection days 2 and 3 (reads of this peptide / all reads for the bait, averaged over …
34 | chain 1 G8Y | 0.00157 average fractional NGS count over selection days 2 and 3 (reads of this peptide / all reads for the bait, averaged over …
35 | chain 1 G8W | 0.000927 average fractional NGS count over selection days 2 and 3 (reads of this peptide / all reads for the bait, averaged over …
36 | chain 1 G8H | 0.00286 average fractional NGS count over selection days 2 and 3 (reads of this peptide / all reads for the bait, averaged over …
37 | chain 1 G8R | 0.000199 average fractional NGS count over selection days 2 and 3 (reads of this peptide / all reads for the bait, averaged over …
38 | chain 1 G8M | 0.00018 average fractional NGS count over selection days 2 and 3 (reads of this peptide / all reads for the bait, averaged over …
39 | chain 1 G8Q | 0.0015 average fractional NGS count over selection days 2 and 3 (reads of this peptide / all reads for the bait, averaged over …
40 | chain 1 G8A | 0.000308 average fractional NGS count over selection days 2 and 3 (reads of this peptide / all reads for the bait, averaged over …
41 | chain 1 T13Q | 0.000442 average fractional NGS count over selection days 2 and 3 (reads of this peptide / all reads for the bait, averaged over …
42 | chain 1 T13Y | 0.00269 average fractional NGS count over selection days 2 and 3 (reads of this peptide / all reads for the bait, averaged over …
43 | chain 1 T13W | 0.000505 average fractional NGS count over selection days 2 and 3 (reads of this peptide / all reads for the bait, averaged over …
44 | chain 1 T13H | 0.00485 average fractional NGS count over selection days 2 and 3 (reads of this peptide / all reads for the bait, averaged over …
45 | chain 1 T13P | 0.000265 average fractional NGS count over selection days 2 and 3 (reads of this peptide / all reads for the bait, averaged over …
46 | chain 1 T13R | 0.00097 average fractional NGS count over selection days 2 and 3 (reads of this peptide / all reads for the bait, averaged over …
47 | chain 1 T13G | 0.00624 average fractional NGS count over selection days 2 and 3 (reads of this peptide / all reads for the bait, averaged over …
48 | chain 1 T13V | 0.0019 average fractional NGS count over selection days 2 and 3 (reads of this peptide / all reads for the bait, averaged over …

Row | Variant | screen value
49 | chain 1 T13A | 0.00106 average fractional NGS count over selection days 2 and 3 (reads of this peptide / all reads for the bait, averaged over …
50 | chain 1 T13M | 0.000376 average fractional NGS count over selection days 2 and 3 (reads of this peptide / all reads for the bait, averaged over …
51 | chain 1 T13D | 0.00412 average fractional NGS count over selection days 2 and 3 (reads of this peptide / all reads for the bait, averaged over …
52 | chain 1 H9R | 0.00234 average fractional NGS count over selection days 2 and 3 (reads of this peptide / all reads for the bait, averaged over …
53 | chain 1 H9N | 0.00523 average fractional NGS count over selection days 2 and 3 (reads of this peptide / all reads for the bait, averaged over …
54 | chain 1 H9I | 0.00113 average fractional NGS count over selection days 2 and 3 (reads of this peptide / all reads for the bait, averaged over …
55 | chain 1 H9G | 0.00212 average fractional NGS count over selection days 2 and 3 (reads of this peptide / all reads for the bait, averaged over …
56 | chain 1 H9E | 0.00208 average fractional NGS count over selection days 2 and 3 (reads of this peptide / all reads for the bait, averaged over …
57 | chain 1 H9A | 0.00146 average fractional NGS count over selection days 2 and 3 (reads of this peptide / all reads for the bait, averaged over …
58 | chain 1 H9V | 0.00147 average fractional NGS count over selection days 2 and 3 (reads of this peptide / all reads for the bait, averaged over …
59 | chain 1 H9S | 0.00629 average fractional NGS count over selection days 2 and 3 (reads of this peptide / all reads for the bait, averaged over …
60 | chain 1 H9K | 0.0135 average fractional NGS count over selection days 2 and 3 (reads of this peptide / all reads for the bait, averaged over …
61 | chain 1 H9T | 0.00161 average fractional NGS count over selection days 2 and 3 (reads of this peptide / all reads for the bait, averaged over …
62 | chain 1 F15D | 0.00754 average fractional NGS count over selection days 2 and 3 (reads of this peptide / all reads for the bait, averaged over …
63 | chain 1 F15S | 0.0126 average fractional NGS count over selection days 2 and 3 (reads of this peptide / all reads for the bait, averaged over …
64 | chain 1 F15L | 0.0296 average fractional NGS count over selection days 2 and 3 (reads of this peptide / all reads for the bait, averaged over …
65 | chain 1 F15R | 0.00042 average fractional NGS count over selection days 2 and 3 (reads of this peptide / all reads for the bait, averaged over …
66 | chain 1 F15H | 0.000286 average fractional NGS count over selection days 2 and 3 (reads of this peptide / all reads for the bait, averaged over …
67 | chain 1 F15W | 0.00256 average fractional NGS count over selection days 2 and 3 (reads of this peptide / all reads for the bait, averaged over …
68 | chain 1 F15Y | 0.00151 average fractional NGS count over selection days 2 and 3 (reads of this peptide / all reads for the bait, averaged over …
69 | chain 1 F15Q | 0.0113 average fractional NGS count over selection days 2 and 3 (reads of this peptide / all reads for the bait, averaged over …
70 | chain 1 F15P | 0.00458 average fractional NGS count over selection days 2 and 3 (reads of this peptide / all reads for the bait, averaged over …
71 | chain 1 F15M | 0.0114 average fractional NGS count over selection days 2 and 3 (reads of this peptide / all reads for the bait, averaged over …
